The values below are quoted from earlier work in patent publication US20200069786A1, “COMPOSITION AND PROCESS FOR PREPARING VACCINE” (TREOS BIO ZRT., priority 2018, published 2020).

Where two headings read alike, the source gives them in different places.

The subject of this series is TSA.
Setting [1] is: TSA expression rate in BLADDER cancer.
Setting [2] is: TSA expression rate in Esophageal.
The mark [3] stands for this setting: TSA expression rate in GASTRIC cancer.
[4] abbreviates: TSA expression rate in HEAD and NECK.
Where [5] appears, read: TSA expression rate in LEUKEMIAS
Where [6] appears, read: TSA expression rate in LYMPHOMAS
The mark [7] stands for this setting: TSA expression rate in MELANOMA
[8] abbreviates: TSA expression rate in PEDIATRIC
[9] abbreviates: TSA expression rate in PROSTATE cancer.
Where [10] appears, read: TSA expression rate in LUNG cancer.

B1: MAGE-C2 (protein, UniProt Q9UBF1 1-373, looked up)
Melanoma-associated antigen C2: MPPVPGVPFRNVDNDSPTSVELEDWVDAQHPTDEEEEEASSASSTLYLVFSPSSFSTSSSLILGGPEEEEVPSGVIPNLTESIPSSPPQGPPQGPSQSPLSSCCSSFSWSSFSEESSSQKGEDTGTCQGLPDSESSFTYTLDEKVAELVEFLLLKYEAEEPVTEAEMLMIVIKYKDYFPVILKRAREFMELLFGLALIEVGPDHFCVFANTVGLTDEGSDDEGMPENSLLIIILSVIFIKGNCASEEVIWEVLNAVGVYAGREHFVYGEPRELLTKVWVQGHYLEYREVPHSSPPYYEFLWGPRAHSESIKKKVLEFLAKLNNTVPSSFPSWYKDALKDVEERVQATIDTADDATVMASESLSVMSSNVSFSE
For B1, the “TSA Expression Rate (ER)” value (BRAIN) is on record as 34%; the “TSA Expression Rate (ER)” value (BREAST) is listed as 19%; the “TSA Expression Rate (ER)” value (HCC) is listed as 37%; the “TSA Expression Rate (ER)” value (LUNG) is reported as 27%; the “TSA Expression Rate (ER)” value (THYROID) was 0%. For the same molecule, the “Expression Rate (ER) %” value was 19% under setting [1]; 4% (TSA expression rate in CRC); 11% under setting [2]; 10% under setting [3]; 29% under setting [4]; 37% under setting [5]. Moreover, the “Expression Rate (ER) %” value is 0% under setting [6], 45% under setting [7], 40% under setting [8] and 6% under setting [9].

B2: SSX-4 (protein, UniProt O60224 1-188, looked up)
Protein SSX4: MNGDDAFARRPRDDAQISEKLRKAFDDIAKYFSKKEWEKMKSSEKIVYVYMKLNYEVMTKLGFKVTLPPFMRSKRAADFHGNDFGNDRNHRNQVERPQMTFGSLQRIFPKIMPKKPAEEENGLKEVPEASGPQNDGKQLCPPGNPSTLEKINKTSGPKRGKHAWTHRLRERKQLVVYEEISDPEEDDE
For the molecule B2, the “TSA Expression Rate (ER)” value reads like this: (BRAIN) 4%; (BREAST) 27%; (HCC) 48%; (OVARIAN) 13%; (PANCREATIC) 21%; (THYROID) 0%. The “Expression Rate (ER) %” value reads like this: under setting [1], 11%; (TSA expression rate in Cervical cancer) 20%; under setting [2], 7%; under setting [3], 23%; under setting [4], 29%; (TSA expression rate in Kidney) 0%. Moreover, the “Expression Rate (ER) %” value is 30% under setting [5]; 13% under setting [10]; 16% under setting [6]; 21% under setting [7]; 67% under setting [8].

B3: FMR1NB (protein, UniProt Q8N0W7 1-255, looked up)
FMR1 neighbor protein: MSSHRRKAKGRNRRSHRAMRVAHLELATYELAATESNPESSHPGYEAAMADRPQPGWRESLKMRVSKPFGMLMLSIWILLFVCYYLSYYLCSGSSYFVLANGHILPNSENAHGQSLEEDSALEALLNFFFPTTCNLRENQVAKPCNELQDLSESECLRHKCCFSSSGTTSFKCFAPFRDVPKQMMQMFGLGAISLILVCLPIYCRSLFWRSEPADDLQRQDNRVVTGLKKQRRKRKRKSEMLQKAARGREEHGDE
As to B3, the “TSA Expression Rate (ER)” value runs as follows: (BREAST) 55%; (LUNG) 28%. Moreover, the “Expression Rate (ER) %” value is on record as 8% under setting [2], 0% (TSA expression rate in Kidney) and 0% under setting [9].

B4: TDRD1 (protein, UniProt Q9BXT4 1-1180, looked up)
Tudor domain-containing …: MSVKSPFNVMSRNNLEAPPCKMTEPFNFEKNENKLPPHESLRSPGTLPNHPNFRLKSSENGNKKNNFLLCEQTKQYLASQEDNSVSSNPNGINGEVVGSKGDRKKLPAGNSVSPPSAESNSPPKEVNIKPGNNVRPAKSKKLNKLVENSLSISNPGLFTSLGPPLRSTTCHRCGLFGSLRCSQCKQTYYCSTACQRRDWSAHSIVCRPVQPNFHKLENKSSIETKDVEVNNKSDCPLGVTKEIAIWAERIMFSDLRSLQLKKTMEIKGTVTEFKHPGDFYVQLYSSEVLEYMNQLSASLKETYANVHEKDYIPVKGEVCIAKYTVDQTWNRAIIQNVDVQQKKAHVLYIDYGNEEIIPLNRIYHLNRNIDLFPPCAIKCFVANVIPAEGNWSSDCIKATKPLLMEQYCSIKIVDILEEEVVTFAVEVELPNSGKLLDHVLIEMGYGLKPSGQDSKKENADQSDPEDVGKMTTENNIVVDKSDLIPKVLTLNVGDEFCGVVAHIQTPEDFFCQQLQSGRKLAELQASLSKYCDQLPPRSDFYPAIGDICCAQFSEDDQWYRASVLAYASEESVLVGYVDYGNFEILSLMRLCPIIPKLLELPMQAIKCVLAGVKPSLGIWTPEAICLMKKLVQNKIITVKVVDKLENSSLVELIDKSETPHVSVSKVLLDAGFAVGEQSMVTDKPSDVKETSVPLGVEGKVNPLEWTWVELGVDQTVDVVVCVIYSPGEFYCHVLKEDALKKLNDLNKSLAEHCQQKLPNGFKAEIGQPCCAFFAGDGSWYRALVKEILPNGHVKVHFVDYGNIEEVTADELRMISSTFLNLPFQGIRCQLADIQSRNKHWSEEAITRFQMCVAGIKLQARVVEVTENGIGVELTDLSTCYPRIISDVLIDEHLVLKSASPHKDLPNDRLVNKHELQVHVQGLQATSSAEQWKTIELPVDKTIQANVLEIISPNLFYALPKGMPENQEKLCMLTAELLEYCNAPKSRPPYRPRIGDACCAKYTSDDFWYRAVVLGTSDTDVEVLYADYGNIETLPLCRVQPITSSHLALPFQIIRCSLEGLMELNGSSSQLIIMLLKNFMLNQNVMLSVKGITKNVHTVSVEKCSENGTVDVADKLVTFGLAKNITPQRQSALNTEKMYRMNCCCTELQKQVEKHEHILLFLLNNSTNQNKFIEMKKLLKS
With B4, the “TSA Expression Rate (ER)” value runs as follows: (BREAST) 38%; (THYROID) 0%. In addition, the “Expression Rate (ER) %” value under setting [1] is recorded as 29%; the “Expression Rate (ER) %” value (TSA expression rate in CRC) is reported as 0%; the “Expression Rate (ER) %” value under setting [2] was 10%; the “Expression Rate (ER) %” value under setting [4] is recorded as 22%; the “Expression Rate (ER) %” value (TSA expression rate in Kidney) is given as 0%; the “Expression Rate (ER) %” value under setting [10] is reported as 5%. For the same molecule, the “Expression Rate (ER) %” value reads like this: under setting [7], 0%; under setting [9], 47%.
